Patent US20220306744A1 (CRESCENDO BIOLOGICS, published 2022)
Each block holds one binder with its values, some of them ahead of it.

How the values were obtained:
[1] = target: T1, human PD-1 expressed on cells (CHO TREX human PD1 cell line, full-length human PD-1 sequence) (human, UniProt Q15116 21-288); assay: FMAT: inhibition of human Fc tagged human PD-L1 (400 pM) binding to CHO human PD-1 cells
T1 construct: Also used for human PD-1 on Jurkat reporter cells, on PathHunter cells and on PHA-stimulated human CD4+ T cells; also called CHO human PD1 cells; CHO human PD-1 cells
T1 sequence (Q15116 21-288): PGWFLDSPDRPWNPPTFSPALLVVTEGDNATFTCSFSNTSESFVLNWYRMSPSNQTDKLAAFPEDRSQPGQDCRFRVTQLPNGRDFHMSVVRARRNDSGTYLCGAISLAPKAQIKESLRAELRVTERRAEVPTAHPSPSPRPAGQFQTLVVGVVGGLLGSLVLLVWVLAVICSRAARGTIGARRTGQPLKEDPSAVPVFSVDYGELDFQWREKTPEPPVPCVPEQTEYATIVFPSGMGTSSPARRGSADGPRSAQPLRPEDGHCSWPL
Method: (§1) Purified VH were serially diluted in FMAT assay buffer and tested for binding to CHO human PD-1 cells as described above and for inhibition of human PD-L1/PD-L2 binding to CHO human PD-1 cells. All reagents and serially diluted VH were prepared in FMAT assay buffer. VH, buffer (total binding controls) or excess competitor (non-specific binding control) were incubated with 400 pM human Fc tagged human PD-L1 or 100 pM PDL-2, 4 nM anti human Fc-Alexa Fluor-488 and 2000 per well CHO human PD-1 DRAQ5 stained cells in a 384 well black clear-bottomed assay plates. Plates were incubated for 2 hours at room temperature then fluorescence measured in the FL2 (502 nm-537 nm) and FL5 (677-800 nm) channels on the Mirrorball plate reader (TTP) following excitation at 488 nm and 640 nm. Data was expressed as a % of the total binding control (i.e. % control) after subtraction of the background signal determined from the non-specific binding control wells. The results are shown in FIG. 5 and in Tables 8 and 9 below.

[2] = target: T1, human PD-1 expressed on cells (CHO TREX …); assay: FMAT: inhibition of PDL-2 (100 pM) binding to CHO human PD-1 cells
Method: as §1

[3] = target: T1, human PD-1 expressed on cells (CHO TREX …); assay: FMAT: inhibition of human Fc tagged human PD-L1 (400 pM) binding to CHO human PD-1 cells; remark: listed apart in the source
Method: as §1

[4] = target: T2, Strep tagged recombinant human PD-1 (human, UniProt Q15116 25-167, limits assumed); assay: SPR Biacore T200, single cycle kinetics, Strep tagged human PD-1 amine coupled, 1:1 model
T2 construct: whole entry named; also called Strep tagged human PD-1; not shown: Strep tag
T2 sequence (Q15116 25-167 limits assumed): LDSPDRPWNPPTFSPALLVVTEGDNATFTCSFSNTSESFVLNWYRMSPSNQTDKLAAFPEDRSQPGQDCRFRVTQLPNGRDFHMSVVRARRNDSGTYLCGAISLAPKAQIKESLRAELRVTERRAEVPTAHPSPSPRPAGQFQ
Method: Single cycle kinetics assays were used to study the interaction between human PD-1 with Humabody VHs on a Biacore T200 instrument (GE Healthcare). Strep tagged recombinant human PD-1 was amine coupled to one flow cell of a CM-5 chip to create a low density surface (14 RU) using standard Biacore reagents. For the reference flow cell, a blank immobilisation was carried out. A five point, three-fold dilution series of each Humabody VH was made with a top concentration of 25 nM. The binding kinetics were followed by flowing the Humabody VH over the chip surface in HBS EP+ buffer at a flow rate of 30 μl/min. The contact time for each of the association steps was 180 seconds and the dissociation step was 3300 seconds. The data was fitted to a 1:1 binding model after double reference subtraction using the Biacore T200 Evaluation software.

[5] = target: T3, recombinant human PD-1 Fc chimera (human, UniProt Q15116 25-167); assay: SPR Biacore T200, single cycle kinetics, human PD-1-hu Fc amine coupled to CM5, 1:1 model
T3 construct: Bought protein (R&D 1086-PD in the HTRF assay); also called human PD-1-hu Fc; huPD-1Fc; not shown: human Fc
T3 sequence (Q15116 25-167 limits assumed, stated change not applied): as the sequence (Q15116 25-167 limits assumed) above
Method: Binding kinetics of certain humabodies binding to human PD-1-hu Fc were measured by surface plasmon resonance (SPR) technology using Biacore T200 instrument (GE Healthcare). Recombinant human PD-1-hu Fc was immobilized by standard amine coupling to CM5 sensors chip (GE Healthcare) using 0.1 mg/ml solution of antigen in 10 mM sodium acetate at pH 5.5. For the reference flow cell, a blank immobilisation was carried out. Single cycle kinetics assays were used to study the interaction, a five point, three-fold dilution series of each Humabody® VH was made with a top concentration of 30 nM. The binding kinetics were followed by flowing the Humabody® VH over the chip surface in HBS EP+ buffer at a flow rate of 30 μl/min. The contact time for each of the association steps was 180 seconds and the dissociation step was varied between 1200-3600 seconds. The data was fitted to a 1:1 binding model after double reference subtraction using the Biacore T200 Evaluation software.

[6] = target: T3, recombinant human PD-1 Fc chimera; assay: SPR Biacore T200, single cycle kinetics, human Fc tagged PD-1 captured on Protein G, 1:1 model
Method: Single cycle kinetics assays were used to study the interaction between human Fc tagged human PD-1 with Humabody® VH on a Biacore T200 instrument (GE Healthcare). Protein G was amine coupled to two flow cells of a CM-5 chip. Human Fc tagged recombinant human PD-1 was captured onto one of the flow cells. The other was used as the reference flow cell. A five point, three-fold dilution series of each Humabody® VH was made with a top concentration within the range of 50 to 150 nM. The binding kinetics were followed by flowing the Humabody® VH over the chip surface in HBS EP+ buffer at a flow rate of 30 μl/min. The contact time for each of the association steps was 180 seconds and the dissociation step was 3600 seconds. The data was fitted to a 1:1 binding model after double reference subtraction using the Biacore T200 Evaluation software.

[7] = target: T1, human PD-1 expressed on cells (CHO TREX …); assay: cell-based or functional assay
[8] = target: T1, human PD-1 expressed on cells (CHO TREX …); assay: cell-based or functional assay; remark: listed apart in the source
[9] = target: T4, mouse PD-1 protein (R&D Systems cat no. 1021-PD) (mouse, UniProt Q02242 25-167); assay: HTRF binding assay, 2 nM mouse PD1
T4 construct: Bought protein
T4 sequence (looked up): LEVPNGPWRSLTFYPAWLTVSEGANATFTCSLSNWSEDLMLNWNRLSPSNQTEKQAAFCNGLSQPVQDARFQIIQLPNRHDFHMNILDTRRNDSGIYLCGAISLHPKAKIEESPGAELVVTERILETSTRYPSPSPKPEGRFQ
Method: (§2) Purified VH were tested for their ability to bind to human PD1 (R&D Systems cat no. 1086-PD), cynomolgus PD-1 (Acro Biosystems cat no. PD-1-C5254) and mouse PD1 (R&D Systems cat no. 1021-PD) in an HTRF Binding assay format. All reagents and serially diluted VH were prepared in assay buffer containing PBS, 0.1% BSA and 0.4M Potassium Fluoride. Samples or assay buffer (non-specific binding) were incubated with 2 nM human/cynomolgus or mouse PD1, 1 nM Anti human-Fc Cryptate PAb (Cisbio cat. no. 61HFCKLB) and 30 nM anti His-D2 (CisBio cat no 61HISDLA) in black 384-shallow well assay plates for a minimum of 3 hours at room temperature. Time-resolved fluorescent emission at 620 nm and 665 nm was measured following excitation at 337 nm on the BMG PHERAstar plate reader. The HTRF ratio were calculated ((665 nm emission/620 nm emission)*10000) and the data corrected for (non-specific binding) to give the specific binding signal.

[10] = target: T3, recombinant human PD-1 Fc chimera; assay: HTRF binding assay, 2 nM recombinant PD1, anti His-D2 and anti human-Fc cryptate
Method: as §2

[11] = target: T5, cynomolgus PD-1 recombinant protein (Acro Biosystems cat no. PD-1-C5254) (cynomolgus); assay: as above
T5 construct: Bought protein; also called cyno PD1
Method: as §2

[12] = target: T3, recombinant human PD-1 Fc chimera; assay: BLI Octet, human PD-1-hu Fc amine coupled to biosensors, 1:1 model
Method: Binding kinetics for Humabody® 1.1a to human PD-1-hu Fc are shown below. These were measured in real-time bio-layer interferometer based biosensor Octet (ForteBio). Recombinant human PD-1-hu Fc was immobilized by standard amine coupling to amine reactive biosensors in 10 mM sodium acetate at pH 5.0. All the binding studies were performed in HBS-ET Octet kinetics buffer. Biosensors were always washed in Octet kinetics buffer in between different steps. A seven point, two-fold dilution series of each Humabody® VH was made with a top concentration of 30 nM. The contact time for each of the association steps was 300 seconds and the dissociation step was varied between 400-600 seconds. Kinetic association (kₐ) and dissociation (kd) rate constants were determined by processing and fitting the data to a 1:1 binding model using ForteBio Analysis software.

IC50 [1]: 23 nM
B1: 1.1b (VHH)
VHH: QVQLVESGGGLVKPGGSLRLSCAASGFTFSDYTMTWMRQAPGKGLEWVSYISTGGTIKYYTDSVKGRFTISRDNAKNSLYLQMNSLRADDTAVYYCAREAPLRLGESPHDAFDIWGQGTMVTVSS
notes: also called Humabody 1.1b

IC50 [2]: 2.3 nM
IC50 [1]: 4.2 nM
IC50 [3]: 1.8 nM
Kd [4]: 0.0782 nM
koff [4]: 3.17e-05 s⁻¹
kon [4]: 405000 M⁻¹ s⁻¹
Kd [5]: 0.000124 nM
koff [5]: 6.68e-08 s⁻¹
kon [5]: 537000 M⁻¹ s⁻¹
Kd [6]: 44.1 pM
koff [6]: 2.11e-05 s⁻¹
kon [6]: 479000 M⁻¹ s⁻¹
B2: 1.57b (VHH)
VHH: QVQLVESGGGLVKPGGSLRLSCAASGFTFSDNSMTWMRQAPGKGLEWVSYISSGGGVIFYADSVKGRFTISRDNAKNSLYLQMNSLRADDTAVYYCAREAPLRLGESPHDAFDISGQGTMVTVSS

EC50 (M), NFAT-Luciferase reporter gene assay [7]: 3.2e-09 M
EC50 uM, PathHunter Checkpoint assay (PD-1 signalling) [8]: 0.0005 µM
Max. % increase in response over baseline, PathHunter Checkpoint assay [8]: 253%
B3: 1.77b-4GS-1.21a (other)
chain: EVQLVESGGGLVKPGGSLRLSCAASGFTFSDSSMTWMRQAPGKGLEWVSYISSGGGVKFYTDSVKGRFTISRDNAKNSLYLQMNSLRAEDTAVYYCAREAPLRLGESPHDAFDISGQGTMVTVSSGGGGSGGGGSGGGGSGGGGSEVQLVESGGGLVQPGRSLRLSCAASGFTFDDYAMHWVRQAPGKDLEWVSGISWNGGSMGYAASVKGRFTISRDNAKNSLYLQMNSLRAEDTALYYCVREKGPGLTGSTADYYGLDVWGQGTMVTVSS

EC50 (M), NFAT-Luciferase reporter gene assay [7]: 1.1e-08 M
binding result [9]: no binding
EC50 [10]: 0.5 nM
EC50 [11]: 0.92 nM
Kd [5]: 0.028 nM
koff [5]: 6.39e-06 s⁻¹
kon [5]: 228000 M⁻¹ s⁻¹
B4: 1.1b-6GS-1.1a (other)
chain: QVQLVESGGGLVKPGGSLRLSCAASGFTFSDYTMTWMRQAPGKGLEWVSYISTGGTIKYYTDSVKGRFTISRDNAKNSLYLQMNSLRADDTAVYYCAREAPLRLGESPHDAFDIWGQGTMVTVSSGGGGSGGGGSGGGGSGGGGSGGGGSGGGGSEVQLLESGGGSVQPGRSLRLSCAASGFTFDDHAMHWVRQAPGKGLEWVSGISWNSGSMGYADSVKDRFTISRDNAKSSLYLQMNSLRAEDTALYYCVREKGPGLTGSTADYYGLDVWGQGTMVTVSS
notes: Biparatopic VH-linker-VH

EC50 (M), NFAT-Luciferase reporter gene assay [7]: 1.7e-09 M
binding result [9]: no binding
IC50 [2]: 1.2 nM
EC50 [10]: 1.2 nM
EC50 [11]: 2.1 nM
IC50 [1]: 1.3 nM
IC50 [3]: 0.9 nM
Kd [4]: 0.111 nM
koff [4]: 4.86e-05 s⁻¹
kon [4]: 437000 M⁻¹ s⁻¹
Kd [6]: 0.0594 pM
koff [6]: 4.59e-08 s⁻¹
kon [6]: 773000 M⁻¹ s⁻¹
B5: 1.57b-4GS-1.1a (other)
chain: QVQLVESGGGLVKPGGSLRLSCAASGFTFSDNSMTWMRQAPGKGLEWVSYISSGGGVIFYADSVKGRFTISRDNAKNSLYLQMNSLRADDTAVYYCAREAPLRLGESPHDAFDISGQGTMVTVSSGGGGSGGGGSGGGGSGGGGSEVQLLESGGGSVQPGRSLRLSCAASGFTFDDHAMHWVRQAPGKGLEWVSGISWNSGSMGYADSVKDRFTISRDNAKSSLYLQMNSLRAEDTALYYCVREKGPGLTGSTADYYGLDVWGQGTMVTVSS
notes: Biparatopic VH-linker-VH

EC50 (M), NFAT-Luciferase reporter gene assay [7]: 8.5e-09 M
IC50 [1]: 5.6 nM
Kd [5]: 0.035 nM
koff [5]: 1.1e-05 s⁻¹
kon [5]: 316000 M⁻¹ s⁻¹
B6: 1.1b-4GS-1.1a (other)
chain: QVQLVESGGGLVKPGGSLRLSCAASGFTFSDYTMTWMRQAPGKGLEWVSYISTGGTIKYYTDSVKGRFTISRDNAKNSLYLQMNSLRADDTAVYYCAREAPLRLGESPHDAFDIWGQGTMVTVSSGGGGSGGGGSGGGGSGGGGSEVQLLESGGGSVQPGRSLRLSCAASGFTFDDHAMHWVRQAPGKGLEWVSGISWNSGSMGYADSVKDRFTISRDNAKSSLYLQMNSLRAEDTALYYCVREKGPGLTGSTADYYGLDVWGQGTMVTVSS
notes: Biparatopic VH-linker-VH

koff [12]: 0.000901 s⁻¹
kon [12]: 459000 M⁻¹ s⁻¹
Kd [5]: 0.676 nM
koff [5]: 7.35e-05 s⁻¹
kon [5]: 109000 M⁻¹ s⁻¹
B7: 1.1a (VHH)
VHH: EVQLLESGGGSVQPGRSLRLSCAASGFTFDDHAMHWVRQAPGKGLEWVSGISWNSGSMGYADSVKDRFTISRDNAKSSLYLQMNSLRAEDTALYYCVREKGPGLTGSTADYYGLDVWGQGTMVTVSS
notes: also called Humabody 1.1a; VH single domain antibody 1.1a
